In patent US20240261333A1 (published 2024):

T1: JUP (human, UniProt P14923 1-745)
T1 construct: also called NP_001339702.1
T1 sequence (looked up): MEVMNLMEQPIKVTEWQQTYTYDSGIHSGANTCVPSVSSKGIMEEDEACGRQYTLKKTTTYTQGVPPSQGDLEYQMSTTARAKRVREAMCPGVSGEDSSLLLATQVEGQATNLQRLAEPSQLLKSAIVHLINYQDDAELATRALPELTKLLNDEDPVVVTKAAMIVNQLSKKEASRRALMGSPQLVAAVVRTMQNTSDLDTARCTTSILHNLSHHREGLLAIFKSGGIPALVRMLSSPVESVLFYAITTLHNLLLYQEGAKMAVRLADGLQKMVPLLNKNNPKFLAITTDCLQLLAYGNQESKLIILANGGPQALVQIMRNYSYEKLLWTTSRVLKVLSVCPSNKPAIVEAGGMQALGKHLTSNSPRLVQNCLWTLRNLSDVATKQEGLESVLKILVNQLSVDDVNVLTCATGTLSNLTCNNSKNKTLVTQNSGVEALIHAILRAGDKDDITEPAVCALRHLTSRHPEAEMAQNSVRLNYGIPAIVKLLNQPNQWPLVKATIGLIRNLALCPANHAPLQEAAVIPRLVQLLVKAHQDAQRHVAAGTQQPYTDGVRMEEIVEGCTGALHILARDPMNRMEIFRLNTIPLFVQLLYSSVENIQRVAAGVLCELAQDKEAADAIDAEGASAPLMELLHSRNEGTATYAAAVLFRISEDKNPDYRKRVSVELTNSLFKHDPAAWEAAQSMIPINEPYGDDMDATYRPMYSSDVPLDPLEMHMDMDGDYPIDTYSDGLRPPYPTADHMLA

T2: TGM1 (human, UniProt P22735 1-817, limits assumed)
T2 construct: also called NP_000350.1
T2 sequence (looked up): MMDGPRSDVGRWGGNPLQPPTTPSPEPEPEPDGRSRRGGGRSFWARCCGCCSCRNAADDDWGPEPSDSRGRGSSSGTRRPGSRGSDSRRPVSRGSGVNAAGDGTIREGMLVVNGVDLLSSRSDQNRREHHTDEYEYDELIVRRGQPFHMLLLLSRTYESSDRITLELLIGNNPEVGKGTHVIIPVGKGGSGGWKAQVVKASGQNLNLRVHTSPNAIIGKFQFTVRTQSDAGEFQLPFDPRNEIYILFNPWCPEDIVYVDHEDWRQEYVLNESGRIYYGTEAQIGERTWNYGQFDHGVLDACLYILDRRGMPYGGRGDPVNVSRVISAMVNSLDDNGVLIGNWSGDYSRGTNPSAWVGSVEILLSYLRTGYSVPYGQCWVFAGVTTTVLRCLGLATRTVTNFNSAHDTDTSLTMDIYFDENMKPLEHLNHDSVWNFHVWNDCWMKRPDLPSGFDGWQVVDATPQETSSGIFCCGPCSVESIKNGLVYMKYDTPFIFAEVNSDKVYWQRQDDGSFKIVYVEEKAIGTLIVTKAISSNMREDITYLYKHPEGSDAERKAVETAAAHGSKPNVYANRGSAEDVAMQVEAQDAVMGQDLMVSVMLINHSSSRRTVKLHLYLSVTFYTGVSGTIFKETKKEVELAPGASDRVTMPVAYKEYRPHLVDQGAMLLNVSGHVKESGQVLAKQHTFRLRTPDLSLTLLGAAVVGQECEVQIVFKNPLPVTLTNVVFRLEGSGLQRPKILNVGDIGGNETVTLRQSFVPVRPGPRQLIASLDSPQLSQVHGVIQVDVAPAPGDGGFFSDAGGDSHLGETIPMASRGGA

B1: C-terminal FLAG tagged B3GNT2 (enzyme, human, UniProt Q9NY97 1-397, looked up)
chain: MSVGRRRIKLLGILMMANVFIYFIMEVSKSSSQEKNGKGEVIIPKEKFWKISTPPEAYWNREQEKLNRQYNPILSMLTNQTGEAGRLSNISHLNYCEPDLRVTSVVTGFNNLPDRFKDFLLYLRCRNYSLLIDQPDKCAKKPFLLLAIKSLTPHFARRQAIRESWGQESNAGNQTVVRVFLLGQTPPEDNHPDLSDMLKFESEKHQDILMWNYRDTFFNLSLKEVLFLRWVSTSCPDTEFVFKGDDDVFVNTHHILNYLNSLSKTKAKDLFIGDVIHNAGPHRDKKLKYYIPEVVYSGLYPPYAGGGGFLYSGHLALRLYHITDQVHLYPIDDVYTGMCLQKLGLVPEKHKGFRTFDIEEKNKNNICSYVDLMLVHSRKPQEMIDIWSQLQSAHLKC
notes: FLAG-tagged ORF overexpressed in cells; pulled down from lysate with mouse anti-FLAG; also called C-FLAG B3GNT2; C-term flag; not shown: C-terminal FLAG tag
B2: C-terminal FLAG tagged B3GNT2 (enzyme, human, UniProt Q9NY97 1-397, looked up)
chain: MSVGRRRIKLLGILMMANVFIYFIMEVSKSSSQEKNGKGEVIIPKEKFWKISTPPEAYWNREQEKLNRQYNPILSMLTNQTGEAGRLSNISHLNYCEPDLRVTSVVTGFNNLPDRFKDFLLYLRCRNYSLLIDQPDKCAKKPFLLLAIKSLTPHFARRQAIRESWGQESNAGNQTVVRVFLLGQTPPEDNHPDLSDMLKFESEKHQDILMWNYRDTFFNLSLKEVLFLRWVSTSCPDTEFVFKGDDDVFVNTHHILNYLNSLSKTKAKDLFIGDVIHNAGPHRDKKLKYYIPEVVYSGLYPPYAGGGGFLYSGHLALRLYHITDQVHLYPIDDVYTGMCLQKLGLVPEKHKGFRTFDIEEKNKNNICSYVDLMLVHSRKPQEMIDIWSQLQSAHLKC
notes: FLAG-tagged ORF overexpressed in A375 cells; pulled down from the lysate with mouse anti-FLAG; also called C-FLAG B3GNT2; C-term flag; not shown: C-terminal FLAG tag

Assays:
Assay in all cases: co-IP with anti-FLAG, C-FLAG B3GNT2, mass spectrometry
PKM = target: T3, PKM (human, UniProt P14618 2-531, limits assumed)
T3 construct: also called NP_001193725.1 (+3)
Protocol: (§1) Cells were plated in 10-cm cell culture dishes and grown to 60-80% confluency. For each condition, two biological replicates were harvested for co-IP. Cells were washed with PBS and 4 mL of lysis buffer (20 mM HEPES, 1% Triton X-100, 150 mM NaCl, 1 mM EDTA, and 10% glycerol) containing protease inhibitor cocktail was added. Cells were scraped and lysate was incubated at 4° C. under rotary agitation for 1 h. Lysate was centrifuged at 14,000×g for 10 min at 4° C. Supernatant was transferred to a new tube and an aliquot was taken as the input. […] For Western blots, 10 μg/mL Chicken Anti-FLAG (Aves labs ET-DY100) and IgY control (R&D Systems AB-101-C) antibodies were biotinylated (Thermo Fisher Scientific 90407) and added to the respective conditions. Lysates with antibodies were incubated at 4° C. under rotary agitation overnight. For each mL of lysate, 50 μL of Pierce Protein A/G Magnetic Beads (Mass spectrometry; Thermo Fisher Scientific 88803) or Pierce Streptavidin Magnetic Beads (Western blot; Thermo Fisher Scientific 88817) was washed twice with lysis buffer. Lysates with antibodies were added to the beads and incubated at 4° C. under rotary agitation for 4 h. Beads were washed with lysis buffer 3 times and resuspended in lysis buffer for storage.
(§2) Magnetic beads were resuspended in 100 mM Tris pH 7.8, reduced, alkylated and digested with trypsin at 37° ° C. overnight. This solution was subjected to solid phase extraction to concentrate the peptides and remove unwanted reagents followed by injection onto a Shimadzu HPLC with fraction collector. Eight fractions were collected and after concentration were injected on a Waters NanoAcquity HPLC equipped with a self-packed Aeris 3 μm C18 analytical column 0.075 mm by 20 cm, (Phenomenex). Peptides were eluted using standard reverse-phase gradients. The effluent from the column was analyzed using a Thermo Orbitrap Elite mass spectrometer (nanospray configuration) operated in a data dependent manner for 54 minutes. The resulting fragmentation spectra were correlated against the known database using Proteome Discover 1.4 (Thermo Fisher Scientific).

JUP = target: T1, JUP
Protocol: as §1, §2

DDX17 = target: T4, DDX17 (human, UniProt Q92841 1-729, limits assumed)
T4 construct: also called NP_001091974.1
Protocol: as §1, §2

TGM1 = target: T2, TGM1
Protocol: as §1, §2

T3 sequence (P14618 2-531 limits assumed): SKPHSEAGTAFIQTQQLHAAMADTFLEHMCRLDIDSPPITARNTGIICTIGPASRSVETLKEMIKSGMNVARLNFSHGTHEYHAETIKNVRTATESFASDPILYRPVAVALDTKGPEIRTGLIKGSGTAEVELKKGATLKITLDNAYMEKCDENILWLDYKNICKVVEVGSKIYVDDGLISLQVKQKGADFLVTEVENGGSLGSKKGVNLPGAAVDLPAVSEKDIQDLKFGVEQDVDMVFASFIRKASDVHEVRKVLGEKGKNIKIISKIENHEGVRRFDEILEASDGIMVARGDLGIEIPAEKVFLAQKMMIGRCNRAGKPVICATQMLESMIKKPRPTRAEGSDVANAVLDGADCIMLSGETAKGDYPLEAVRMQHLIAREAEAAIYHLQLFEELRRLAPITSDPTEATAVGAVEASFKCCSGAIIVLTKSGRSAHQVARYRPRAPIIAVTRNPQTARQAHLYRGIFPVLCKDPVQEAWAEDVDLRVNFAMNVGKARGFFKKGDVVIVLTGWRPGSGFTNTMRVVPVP
T4 sequence (Q92841 whole entry): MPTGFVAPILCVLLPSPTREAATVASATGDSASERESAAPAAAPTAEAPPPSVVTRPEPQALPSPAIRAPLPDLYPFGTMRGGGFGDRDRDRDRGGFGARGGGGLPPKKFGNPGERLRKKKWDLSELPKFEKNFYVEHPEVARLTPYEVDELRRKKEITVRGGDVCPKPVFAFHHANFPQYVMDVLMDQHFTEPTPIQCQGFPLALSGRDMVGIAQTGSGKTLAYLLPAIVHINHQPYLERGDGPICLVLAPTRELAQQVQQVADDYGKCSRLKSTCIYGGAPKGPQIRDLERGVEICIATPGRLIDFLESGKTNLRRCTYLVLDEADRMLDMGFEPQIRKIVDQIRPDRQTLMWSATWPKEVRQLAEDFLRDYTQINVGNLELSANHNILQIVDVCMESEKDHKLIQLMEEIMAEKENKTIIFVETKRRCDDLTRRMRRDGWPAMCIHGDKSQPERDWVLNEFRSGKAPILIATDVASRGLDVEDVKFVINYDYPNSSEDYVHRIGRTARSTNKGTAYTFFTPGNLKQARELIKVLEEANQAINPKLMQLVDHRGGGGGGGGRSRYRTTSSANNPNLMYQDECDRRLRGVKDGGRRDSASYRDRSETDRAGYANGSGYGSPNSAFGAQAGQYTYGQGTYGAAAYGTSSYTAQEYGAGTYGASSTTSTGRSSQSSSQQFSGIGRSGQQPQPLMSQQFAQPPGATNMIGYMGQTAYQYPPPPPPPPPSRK

| Binder | co-IP mass spectrometry count (PKM) | co-IP/MS count, C-term flag (JUP) | co-IP/MS count, C-term flag (DDX17) | co-IP/MS count, C-term flag (TGM1) |
| --- | --- | --- | --- | --- |
| B1 | 3 | – | – | – |
| B2 | – | 43 | 30 | 8 |
